Experimental data published in US20100047228A1.
Values belong to the binder of their own block, whether it stands above or below them.

Experiments:
Assay in all cases: cell-based or functional assay
delta-plasmin (human) = delta-plasmin (human) (UniProt P00747)
micro-plasmin = micro-plasmin (UniProt P00747)
mini-plasmin (human) = mini-plasmin (human) (UniProt P00747)
plasmin (human) = plasmin (human) (UniProt P00747)
plasmin (human), sequence (P00747 20-580, chain 1 of 2): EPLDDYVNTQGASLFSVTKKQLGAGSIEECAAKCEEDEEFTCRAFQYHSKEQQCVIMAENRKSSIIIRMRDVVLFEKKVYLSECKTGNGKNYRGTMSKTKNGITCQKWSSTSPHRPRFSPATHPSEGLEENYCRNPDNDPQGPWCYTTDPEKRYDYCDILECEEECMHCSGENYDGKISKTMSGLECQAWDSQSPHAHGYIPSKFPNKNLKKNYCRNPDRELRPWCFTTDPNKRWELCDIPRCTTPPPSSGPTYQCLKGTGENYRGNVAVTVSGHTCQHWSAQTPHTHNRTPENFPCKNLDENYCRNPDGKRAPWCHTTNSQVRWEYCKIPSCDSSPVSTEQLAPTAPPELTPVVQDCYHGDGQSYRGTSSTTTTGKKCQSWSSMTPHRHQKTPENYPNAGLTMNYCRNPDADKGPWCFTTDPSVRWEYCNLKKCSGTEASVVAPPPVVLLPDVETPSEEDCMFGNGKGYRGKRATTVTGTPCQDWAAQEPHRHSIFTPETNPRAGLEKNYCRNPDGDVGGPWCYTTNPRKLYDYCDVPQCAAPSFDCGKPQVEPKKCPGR
plasmin (human), sequence (P00747 581-810, chain 2 of 2): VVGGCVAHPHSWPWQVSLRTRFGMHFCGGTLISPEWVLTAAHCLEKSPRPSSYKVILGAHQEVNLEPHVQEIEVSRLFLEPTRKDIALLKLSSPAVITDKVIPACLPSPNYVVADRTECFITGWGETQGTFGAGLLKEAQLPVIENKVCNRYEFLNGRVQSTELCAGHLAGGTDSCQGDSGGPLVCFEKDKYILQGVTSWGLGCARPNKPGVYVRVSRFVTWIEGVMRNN

delta-plasmin (human), sequence (P00747 other isoform, or with tags, fused parts or gaps mutant limits assumed): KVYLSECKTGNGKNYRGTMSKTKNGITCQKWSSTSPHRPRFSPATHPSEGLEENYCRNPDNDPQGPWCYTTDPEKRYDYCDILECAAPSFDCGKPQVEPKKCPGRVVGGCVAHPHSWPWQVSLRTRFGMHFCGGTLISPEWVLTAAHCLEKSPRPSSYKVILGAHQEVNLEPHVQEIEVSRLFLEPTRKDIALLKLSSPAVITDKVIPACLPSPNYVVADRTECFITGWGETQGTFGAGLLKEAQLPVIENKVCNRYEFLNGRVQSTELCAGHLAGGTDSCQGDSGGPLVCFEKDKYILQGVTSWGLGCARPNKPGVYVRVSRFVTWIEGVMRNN
micro-plasmin, sequence (P00747 562-810 limits assumed): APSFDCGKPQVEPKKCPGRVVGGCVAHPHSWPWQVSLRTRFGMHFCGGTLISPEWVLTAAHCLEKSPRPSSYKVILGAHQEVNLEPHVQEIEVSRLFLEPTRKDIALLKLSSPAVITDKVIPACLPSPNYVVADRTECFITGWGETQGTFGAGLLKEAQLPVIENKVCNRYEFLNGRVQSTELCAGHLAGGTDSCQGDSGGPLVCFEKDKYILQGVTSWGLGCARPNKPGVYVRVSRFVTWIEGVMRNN
mini-plasmin (human), sequence (P00747 462-580, chain 1 of 2): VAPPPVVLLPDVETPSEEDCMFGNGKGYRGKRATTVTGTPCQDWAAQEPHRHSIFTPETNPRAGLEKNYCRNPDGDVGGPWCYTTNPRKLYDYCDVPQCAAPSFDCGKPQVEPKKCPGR
mini-plasmin (human), sequence (P00747 581-810, chain 2 of 2): as the sequence (P00747 581-810, chain 2 of 2) above

inhibition rate (delta-plasmin (human)): 760000 M⁻¹ s⁻¹
inhibition rate (micro-plasmin): 780000 M⁻¹ s⁻¹
inhibition rate (mini-plasmin (human)): 750000 M⁻¹ s⁻¹
inhibition rate (plasmin (human)): 650000 M⁻¹ s⁻¹
B1: α2-macroglobulin (protein, UniProt P01023 24-1474, looked up)
chain: SVSGKPQYMVLVPSLLHTETTEKGCVLLSYLNETVTVSASLESVRGNRSLFTDLEAENDVLHCVAFAVPKSSSNEEVMFLTVQVKGPTQEFKKRTTVMVKNEDSLVFVQTDKSIYKPGQTVKFRVVSMDENFHPLNELIPLVYIQDPKGNRIAQWQSFQLEGGLKQFSFPLSSEPFQGSYKVVVQKKSGGRTEHPFTVEEFVLPKFEVQVTVPKIITILEEEMNVSVCGLYTYGKPVPGHVTVSICRKYSDASDCHGEDSQAFCEKFSGQLNSHGCFYQQVKTKVFQLKRKEYEMKLHTEAQIQEEGTVVELTGRQSSEITRTITKLSFVKVDSHFRQGIPFFGQVRLVDGKGVPIPNKVIFIRGNEANYYSNATTDEHGLVQFSINTTNVMGTSLTVRVNYKDRSPCYGYQWVSEEHEEAHHTAYLVFSPSKSFVHLEPMSHELPCGHTQTVQAHYILNGGTLLGLKKLSFYYLIMAKGGIVRTGTHGLLVKQEDMKGHFSISIPVKSDIAPVARLLIYAVLPTGDVIGDSAKYDVENCLANKVDLSFSPSQSLPASHAHLRVTAAPQSVCALRAVDQSVLLMKPDAELSASSVYNLLPEKDLTGFPGPLNDQDNEDCINRHNVYINGITYTPVSSTNEKDMYSFLEDMGLKAFTNSKIRKPKMCPQLQQYEMHGPEGLRVGFYESDVMGRGHARLVHVEEPHTETVRKYFPETWIWDLVVVNSAGVAEVGVTVPDTITEWKAGAFCLSEDAGLGISSTASLRAFQPFFVELTMPYSVIRGEAFTLKATVLNYLPKCIRVSVQLEASPAFLAVPVEKEQAPHCICANGRQTVSWAVTPKSLGNVNFTVSAEALESQELCGTEVPSVPEHGRKDTVIKPLLVEPEGLEKETTFNSLLCPSGGEVSEELSLKLPPNVVEESARASVSVLGDILGSAMQNTQNLLQMPYGCGEQNMVLFAPNIYVLDYLNETQQLTPEIKSKAIGYLNTGYQRQLNYKHYDGSYSTFGERYGRNQGNTWLTAFVLKTFAQARAYIFIDEAHITQALIWLSQRQKDNGCFRSSGSLLNNAIKGGVEDEVTLSAYITIALLEIPLTVTHPVVRNALFCLESAWKTAQEGDHGSHVYTKALLAYAFALAGNQDKRKEVLKSLNEEAVKKDNSVHWERPQKPKAPVGHFYEPQAPSAEVEMTSYVLLAYLTAQPAPTSEDLTSATNIVKWITKQQNAQGGFSSTQDTVVALHALSKYGAATFTRTGKAAQVTIQSSGTFSSKFQVDNNNRLLLQQVSLPELPGEYSMKVTGEGCVYLQTSLKYNILPEKEEFPFALGVQTLPQTCDEPKAHTSFQISLSVSYTGSRSASNMAIVDVKMVSGFIPLKPTVKMLERSNHVSRTEVSSNHVLIYLDKVSNQTLSLFFTVLQDVPVRDLKPAIVKVYDYYETDEFAIAEYNAPCSKDLGNA

inhibition rate (delta-plasmin (human)): 1e+07 M⁻¹ s⁻¹
inhibition rate, fold against micro-plasmin or mini-plasmin (delta-plasmin (human)): 40 fold
rate of inhibition (delta-plasmin (human)): 1.1e+07 M⁻¹ s⁻¹
inhibition rate (micro-plasmin): 180000 M⁻¹ s⁻¹
inhibition rate (second of two separate experiments) (micro-plasmin): 310000 M⁻¹ s⁻¹
inhibition rate (mini-plasmin (human)): 240000 M⁻¹ s⁻¹
B2: α2-antiplasmin (protein, UniProt P08697 40-491, looked up)
chain: NQEQVSPLTLLKLGNQEPGGQTALKSPPGVCSRDPTPEQTHRLARAMMAFTADLFSLVAQTSTCPNLILSPLSVALALSHLALGAQNHTLQRLQQVLHAGSGPCLPHLLSRLCQDLGPGAFRLAARMYLQKGFPIKEDFLEQSEQLFGAKPVSLTGKQEDDLANINQWVKEATEGKIQEFLSGLPEDTVLLLLNAIHFQGFWRNKFDPSLTQRDSFHLDEQFTVPVEMMQARTYPLRWFLLEQPEIQVAHFPFKNNMSFVVLVPTHFEWNVSQVLANLSWDTLHPPLVWERPTKVRLPKLYLKHQMDLVATLSQLGLQELFQAPDLRGISEQSLVVSGVQHQSTLELSEVGVEAAAATSIAMSRMSLSSFSVNRPFLFFIFEDTTGLPLFVGSVRNPNPSAPRELKEQQDSPGNKDFLQSLKGFPRGDKLFGPDLKLVPPMEEDYPQFGSPK
